In patent publication US20240391954A1, “MC4R AGONIST PEPTIDES” (The Regents of the University of Michigan, priority 2021, published 2024):
Several values for one entry are separate records, joined by “and”; a condition that tells them apart may be missing. Identical values can stand only once. Like-named read-outs stand apart in the source and are kept apart here. Values belong to the molecule of their own block, whether it stands above or below them. Starred links: 1 amine or outer side, 2 acyl side, 3 side chain; linkers in the order of their positions; H or OH if unused. Positions of bridges follow the written chain, without caps; N, C: chain ends. Non-standard residues stand in square brackets, D forms with d. dTyr(O-Me) = O-methyl-D-tyrosine, COc1ccc(C[C@@H](N[*:1])C(=O)[*:2])cc1; Nle = CCCC[C@H](N)C(=O)O

Tests used:
Mouse plasma stability = assay type: in vitro ADME; details: pooled mouse plasma, 37° C.
Method: FIG. 3. Results of plasma stability testing for control peptides. Compounds shown were incubated in mouse plasma at 37° C. at 1 μM concentrations. 40 ul aliquots were removed at the times indicated and the reactions stopped with the addition of 160 μL cold acetonitrile containing 200 ng/ml of peptide internal standard (IS). The incubation solution was centrifuged at 3500 rpm for 10 minutes to precipitate protein. LC/MS/MS analysis was used to determine the % peptide remaining.
Pooled mouse plasma was prepared and stored at −80° C, prior to use, 396 μL mouse plasma was incubated at 37° C. for 5 minutes in 1.5 mL microcentrifuge tubes. 4 μL of 100 μM test or control compound/peptide was added to each tube and incubated for 0.5, 15, 30, 60, 120, or 240 minutes. An aliquot of 40 μL of each reaction was stopped by the addition of 4 volume of cold acetonitrile containing 200 ng/mL of […] solution was centrifuged at 3500 rpm for 10 minutes to precipitate protein. The supernatant was used for LC/MS/MS analysis. The natural log peak area ratio (compound peak area/internal standard peak area) was plotted against time and the gradient of the line determined.

[1] = Plasma protein binding (Centrifree ultrafiltration); assay type: in vitro ADME
Method: Solutions of test compound in DMSO were prepared at 1 mM, 100 uM and 10 uM, 5 ul of each solution of test compound was added to 495 uL plasma, and incubated at 25° C. for 5 min. Sample was added to a Centrifree® device, then centrifuged at 2000× g for 20 min to obtain desired filtrate volume. Initial plasma samples and ultrafiltrates were subjected to LC-MS/MS. % Free peptide=(concentration of ultrafiltrates/concentration of plasma)×100%. % Bound=100%−% Free

[2] = Pharmacokinetics: plasma and brain concentration after IP injection; assay type: in vivo, mouse; details: for Brain concentration, individual mice 1-3 / Plasma concentration, individual mice 1-3: individual animals, listed as setmelanotide
Method: FIG. 5. Pharmacokinetic data for an exemplary peptide relative to setmelanotide. Peptides at 1.5 mg/mL in PBS containing 10% DMSO and 10% PEG-400 were given by IP injection (15 mg/kg) to female CD-1 mice (n=15). At the given time points (0.5 h, 2 h, 4 h, 7 h and 24 h), brain samples were taken out and frozen at −80° C. immediately for later preparation and analysis, and blood samples were collected using heparinized calibrated pipettes. Blood samples were centrifuged at 15000 rpm for 10 min. Subsequently, blood plasma was collected from the upper layer. The plasma was frozen at −80° C. for later analysis. Peptide concentrations at times indicated were determined by LC MS/MS, using non-zero standards in blank Plasma and Brain Samples.
The drug at 1.5 mg/mL in PBS containing 10% DMSO and 10% PEG-400 was given by IP injection (15 mg/kg). At the given time points (0.5 h, 2 h, 4 h, 7 h and 24 h), brain samples were taken out and frozen at −80° C. immediately for later preparation and analysis, and blood samples were collected using heparinized calibrated pipettes. Blood samples were centrifuged at 15000 rpm for 10 min. Subsequently, blood plasma was collected from the upper layer. The plasma was frozen at −80° C. for later analysis.
The analytical curves were constructed using non-zero standards in the blank Plasma and Brain Samples. A blank sample (matrix sample processed without internal standard) was used to exclude contamination. The linear regression analysis of CTX1227/setmelanotide were performed by plotting the peak area ratio (y) against the CTX1227/setmelanotide concentration (x) in ng/mL, respectively.

human MC3R [3] = target: T1, human MC3R (human, UniProt P41968 1-323); assay: cell-based or functional assay
T1 sequence (P41968 whole entry): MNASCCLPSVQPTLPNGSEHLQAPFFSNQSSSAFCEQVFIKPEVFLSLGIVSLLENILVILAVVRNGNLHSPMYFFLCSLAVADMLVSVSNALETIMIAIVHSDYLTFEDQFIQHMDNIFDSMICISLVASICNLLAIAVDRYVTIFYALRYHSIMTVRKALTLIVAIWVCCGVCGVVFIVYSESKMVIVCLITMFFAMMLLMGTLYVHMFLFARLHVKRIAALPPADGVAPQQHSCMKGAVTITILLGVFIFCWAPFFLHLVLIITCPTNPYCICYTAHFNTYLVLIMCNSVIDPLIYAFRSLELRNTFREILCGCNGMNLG

human MC4R receptor [4] = target: T2, human MC4R receptor (human, UniProt P32245 1-332); assay: cell-based or functional assay
T2 sequence (P32245 whole entry): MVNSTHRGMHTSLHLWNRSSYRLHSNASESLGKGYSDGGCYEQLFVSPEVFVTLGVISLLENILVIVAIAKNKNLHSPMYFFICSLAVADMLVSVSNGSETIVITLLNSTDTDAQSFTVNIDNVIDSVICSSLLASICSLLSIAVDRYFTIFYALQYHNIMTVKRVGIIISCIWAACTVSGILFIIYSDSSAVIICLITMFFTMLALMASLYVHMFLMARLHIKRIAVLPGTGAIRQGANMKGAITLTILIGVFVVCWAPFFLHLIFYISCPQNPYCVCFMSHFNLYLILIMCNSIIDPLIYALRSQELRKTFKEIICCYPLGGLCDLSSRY

human MC4R receptor [5] = target: T2, human MC4R receptor; assay: cell-based or functional assay; remark: listed apart in the source
plasma protein [6] = assay: plasma ultrafiltration (Centrifree), LC-MS/MS; peptide 0.1 uM
plasma protein [7] = assay: plasma ultrafiltration (Centrifree), LC-MS/MS; peptide 1.0 uM
plasma protein [8] = assay: plasma ultrafiltration (Centrifree), LC-MS/MS; peptide 10.0 uM
human MC3R [9] = target: T1, human MC3R; assay: cell-based or functional assay; remark: listed apart in the source
human MC4R receptor [10] = target: T2, human MC4R receptor; assay: cell-based or functional assay; remark: listed apart in the source
human MC4R receptor [11] = target: T2, human MC4R receptor; assay: cell-based or functional assay; remark: listed apart in the source

Molecule: CC(=O)N[C@@H](CCCN=C(N)N)C(=O)N[C@H]1CSSC[C@H](C(N)=O)NC(=O)[C@H](Cc2c[nH]c3ccccc23)NC(=O)C(CCCN=C(N)N)NC(=O)[C@@H](Cc2ccccc2)NC(=O)[C@H](Cc2cnc[nH]2)NC(=O)[C@@H](C)NC1=O (stereo partly drawn) [CTX-1200, Arg-cyclo(Cys-D-Ala-His-D-Phe-Arg-Trp-Cys), reference compound]
half-life at 1 µM (Mouse plasma stability): > 3 h
fraction unbound at 5 min, 0.1 µM ([1]; 0.1 uM): 0.57
fraction unbound at 5 min, 1 µM ([1]; 1.0 uM): 0.43
fraction unbound at 5 min, 10 µM ([1]; 10.0 uM): 0.39
Brain concentration, individual mice 1-3 ([2]; IP 15 mg/kg, 0.5 h, brain, 15 mg/kg): 306.5 ng/g and 231.5 ng/g and 247.5 ng/g
Plasma concentration, individual mice 1-3 ([2]; IP 15 mg/kg, 0.5 h, plasma, 15 mg/kg): 67000 ng/mL and 37200 ng/mL and 25800 ng/mL
Brain concentration, individual mice 1-3 ([2]; IP 15 mg/kg, 2 h, brain, 15 mg/kg): 207.5 ng/g and 121.5 ng/g and 220.5 ng/g
Plasma concentration, individual mice 1-3 ([2]; IP 15 mg/kg, 2 h, plasma, 15 mg/kg): 7190 ng/mL and 11000 ng/mL and 4580 ng/mL
Brain concentration, individual mice 1-3 ([2]; IP 15 mg/kg, 4 h, brain, 15 mg/kg): BLQ
Plasma concentration, individual mice 1-3 ([2]; IP 15 mg/kg, 4 h, plasma, 15 mg/kg): 455 ng/mL and 9590 ng/mL and 17.8 ng/mL
Brain concentration, individual mice 1-3 ([2]; IP 15 mg/kg, 7 h, brain, 15 mg/kg): BlQ and BLQ (2×)
Plasma concentration, individual mice 1-3 ([2]; IP 15 mg/kg, 7 h, plasma, 15 mg/kg): 64.2 ng/mL and 69.3 ng/mL and 55.3 ng/mL
Brain concentration, individual mice 1-3 ([2]; IP 15 mg/kg, 24 h, brain, 15 mg/kg): BlQ and BLQ (2×)
Plasma concentration, individual mice 1-3 ([2]; IP 15 mg/kg, 24 h, plasma, 15 mg/kg): 8.04 ng/mL and 7.37 ng/mL and 8.81 ng/mL
tissue level at time at 0.5 h ([2]; female, CD-1, mouse, brain, ip, 15 mg/kg, mice, 0.5 h, mean of 3): 262 ng/g
tissue level at time at 2 h ([2]; female, CD-1, mouse, brain, ip, 15 mg/kg, mice, 2 h, mean of 3): 183 ng/g
level at 0.5 h ([2]; female, CD-1, mouse, mice, IP 15 mg/kg, 0.5 h, plasma, mean of 3): 43300 ng/mL
level at 2 h ([2]; female, CD-1, mouse, mice, IP 15 mg/kg, 2 h, plasma, mean of 3): 7590 ng/mL
level at 4 h ([2]; female, CD-1, mouse, mice, IP 15 mg/kg, 4 h, plasma, mean of 3): 3350 ng/mL
level at 7 h ([2]; female, CD-1, mouse, mice, IP 15 mg/kg, 7 h, plasma, mean of 3): 62.9 ng/mL
level at 24 h ([2]; female, CD-1, mouse, mice, IP 15 mg/kg, 24 h, plasma, mean of 3, read-out: Plasma concentration, Mean): 8.07 ng/mL

% max activation (human MC3R [3]): 21%
cAMP EC50 (human MC3R [3]): 3 nM
% max activation (human MC4R receptor [4]): 79%
cAMP EC50 (human MC4R receptor [4]): 6.2 nM
MC4R selectivity vs MC1R (human MC4R receptor [5]): 0.44
MC4R selectivity vs MC3R (human MC4R receptor [5]): 0.49
Protein Binding (%) (plasma protein [6]): 53%
Protein Binding (%) (plasma protein [7]): 47%
Protein Binding (%) (plasma protein [8]): 41%
B1: CTX-1238 (peptide)
peptide: Ac-RC[dA]R[dTyr(O-Me)]R[dW]C-NH2
modifications: disulfide 2-8
SMILES: COc1ccc(C[C@H]2NC(=O)[C@H](CCCNC(=N)N)NC(=O)[C@@H](C)NC(=O)[C@@H](NC(=O)[C@H](CCCNC(=N)N)NC(C)=O)CSSC[C@@H](C(N)=O)NC(=O)[C@@H](Cc3c[nH]c4ccccc34)NC(=O)[C@H](CCCNC(=N)N)NC2=O)cc1

% max activation (human MC3R [9]): 44%
cAMP EC50 (human MC3R [9]): 211 nM
% max activation (human MC4R receptor [10]): 96%
cAMP EC50 (human MC4R receptor [10]): 7 nM
MC4R selectivity vs MC1R (human MC4R receptor [11]): 6.59
MC4R selectivity vs MC3R (human MC4R receptor [11]): 30
Protein Binding (%) (plasma protein [6]): 52%
Protein Binding (%) (plasma protein [7]): 58%
Protein Binding (%) (plasma protein [8]): 62%
B2: CTX-1268 (peptide)
peptide: Ac-RCAR[dF]R[dW]C-NH2
modifications: disulfide 2-8

% max activation (human MC3R [9]): 96%
cAMP EC50 (human MC3R [9]): 2.8 nM
% max activation (human MC4R receptor [10]): 103%
cAMP EC50 (human MC4R receptor [10]): 0.3 nM
MC4R selectivity vs MC1R (human MC4R receptor [11]): 0.92
MC4R selectivity vs MC3R (human MC4R receptor [11]): 11
Protein Binding (%) (plasma protein [6]): 50%
Protein Binding (%) (plasma protein [7]): 47%
Protein Binding (%) (plasma protein [8]): 54%
B3: CTX-1227 (peptide)
peptide: Ac-R[Nle]CH[dF]RWC-NH2
modifications: disulfide 3-8
SMILES: CCCC[C@H](NC(=O)[C@H](CCCNC(=N)N)NC(C)=O)C(=O)N[C@H]1CSSC[C@@H](C(N)=O)NC(=O)[C@H](Cc2c[nH]c3ccccc23)NC(=O)[C@H](CCCNC(=N)N)NC(=O)[C@@H](Cc2ccccc2)NC(=O)[C@H](Cc2c[nH]cn2)NC1=O
